Data published in the supplement of paper PMC12042874.
± gives the uncertainty stated by the source.

Experiment: amyloid nucleation score (Sup35N fusion, yeast selection) (log enrichment); library NNK2; higher = more nucleation; inactive = no reads after selection
In short: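 Plasmid inserts were Illumina-sequenced at input and output from psi-negative yeast expressing Sup35N fused to peptides of 20 random codons. The yeast were induced with 100 μM copper sulfate for 24 hours and grown 7 days at 30°C on medium lacking adenine and uracil, and sequences with under 100 input reads were excluded. Nucleation score is the DiMSum log enrichment of output over input reads, centred on the mode score of non-aggregating sequences.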

Substance | amyloid nucleation score
LLRMKTFDHWYRAREGFAYC | -0.512 ± 0.3
IVLLPWSCEM | 1.26 ± 0.19
RGRCFWLEFTFISWLSNDVA | inactive
LFVPGLNR | 0.047 ± 0.31
MLLRHNEPVLLRAHYYRESA | -0.13 ± 0.76
DGIDTCGMCL | -0.096 ± 0.63
EVCMWIPHTAVRLYQS | 1.15 ± 0.23
LDCIS | -0.647 ± 0.55
FYTDPALISHTVEIILVLLI | inactive
LQHSTRLNWD | 0.954 ± 0.51
TPTYLRYIVVIYL | 2.41 ± 0.11
WVYDVQSCIMTPMSGYWFIL | -0.476 ± 0.36
TSFNQELEFFLCGGDVDCNR | -1.17 ± 1.1
YRYCSCMNLAWERFGNPEGQ | -0.399 ± 0.46
SNYSTGHGAGMEDRRLEMGG | 0.717 ± 0.49
CYSKLNASSVCIKFLPSQHE | -0.314 ± 0.27
HMCHTVLHVSAGY | 0.246 ± 0.8
FPCRGLGGVLW | 1.97 ± 0.14
TYSTLFDFRMI | 0.099 ± 0.31
QDGFRMYVLFDYNQCREFCS | 1.23 ± 0.26
AVICVSSRIQFMWMLGGDGT | 5.693 ± 0.045
APANVRWLNFSGLDSNGCPY | inactive
THTGLGG | 0.654 ± 0.8
PVYPAAYWIVSDGGCNVSWE | -0.789 ± 0.37
YLDTHWIYY | 0.056 ± 0.63

Substance | amyloid nucleation score
GKSYVYIRLGIFSMWASHRR | 2.72 ± 0.08
EAYLDCYRLLFWFLFM | inactive
NEDLIEKSLFCLAYSLFPTS | -0.266 ± 0.62
SSKSHLSLLK | -0.849 ± 0.4
IMVVYETSVAGPRTSRGYCL | 4.729 ± 0.041
SWWIVFWGHTTTRWNCSLGD | -0.831 ± 0.35
WMSMKFCFIFLPFYKSSVCM | 1.91 ± 0.18
YQGSLGSDMAISKLFDSDYE | -0.656 ± 1.1
VPGSMLLCIVQALKHANMAG | 0.417 ± 0.24
CFVRTVFL | inactive
ENVCCGVGSVYKSMLAAPPW | 10.23 ± 0.056
CKLPDVTIMDYLLPFM | -0.333 ± 0.41
TICDTLGYLTRSWYLSYESS | -0.545 ± 0.32
VLWMVQMIRPRSS | 7.02 ± 0.074
KFILCCLFPTYGREFCTSGL | 8.921 ± 0.068
TLFLSNFRFRCRFPDHALIS | -1.3 ± 0.48
TYDYMKRDIMFTWLKRERKA | 1.04 ± 0.33
ALCGCPCRKPSATVINLPLF | 0.165 ± 0.37
AQNYYMY | 6.88 ± 0.087
KSPCIVQTTILYNYMAVVIS | 3.83 ± 0.12
NIGRYIIQVGSNGEANWHRV | inactive
GGCVYSVTLFFTWTEWGKAK | -0.516 ± 0.79
MFERINALFNLQ | 3.46 ± 0.14
SMSIYKAAYSFVTGSP | 7.475 ± 0.026
LRCFRACQTRRAFEVLLLEF | -0.152 ± 1

Substance | amyloid nucleation score
SVSLDMGFSLDSHMRGEGRS | 5.22 ± 0.057
CRCTSIRGLKCIRW | 0.767 ± 0.15
LYEYHHGFVCQRVCGAIVGR | 1.23 ± 0.43
VSLIVYKGHKRGWVYRVSRR | 0.42 ± 0.65
KTYDGGFKRNRDEVGPKPGE | -0.326 ± 1
IIKLPWFWDAFKAARQ | -0.069 ± 0.3
HFSVMCTTRSKRLSIKPEWR | 4.41 ± 0.097
TWSEWSTCRMGATRSH | 0.301 ± 0.27
DKWLWEL | 0.575 ± 0.32
FKLFSFQVLYCSFDPCMHYT | -1.33 ± 0.62
LACVKMFSGVFV | 0.06 ± 0.65
DRAWQFPGDRAINGVRSAFF | -1.04 ± 0.63
SFPAGICPLMRLVYVNMGVG | -0.683 ± 1.1
ARVRTMSVRFPVLSVVCYKL | 3.69 ± 0.057
DAAHSFYLSSGNESFVLELT | -0.327 ± 0.63
IVLFVKVDLLIDLISPL | 0.049 ± 0.56
FYFWVSDYQLGDMVNIMNLS | -0.184 ± 1.1
GCGSNSDLLHPGIFGLCKLV | -0.3 ± 0.31
RLMQSVMCRRDLLL | 0.883 ± 0.47
WNKLSLA | 0.443 ± 0.49
LNRISYHTYSILPNVTIMKS | 0.498 ± 0.54
CSNGLYPNTVGRLEYS | -1.05 ± 0.39
NASVHPMFL | -0.24 ± 0.48
YCAFSMYMFKGIIRYAICVV | -1.25 ± 0.38
IGRCDELGRCRTRARACSGL | 7.78 ± 0.084

Substance | amyloid nucleation score
TCCQDYLLIWYCMDSIRNVR | 9.611 ± 0.034
VWMDIRSYLVGGLLTAVPRD | 0.481 ± 0.2
VWHLLRKSFSFR | 0.619 ± 0.8
CLMDTGVFREYCS | -0.585 ± 0.26
DNMWV | 0.388 ± 0.54
SLQYRTSDSQWYVVYCSQEP | 0.484 ± 0.19
YRVYLVFYDFVFVFYMSKYL | inactive
SRFISLSSEDVSALNTCNNR | 1.25 ± 0.61
RSWVLLSYAPFHCS | 0.482 ± 0.19
SNEKVAQSLFAKEREPLRGN | 2.35 ± 0.12
RIISCRN | 0.331 ± 0.43
SRIMALTMCFYTNRGRELVN | -1.19 ± 0.38
NVFLS | inactive
YAIDRRKSL | inactive
GWFKESVFLGFWVRISNSQV | -1.75 ± 1.1
NIYGDNVGCYSTECYNTKLI | -0.305 ± 0.74
GRVCSRSFL | 2.1 ± 0.085
DLYPENFASMRFRVTTSLVF | inactive
IRCSVVDLCESSADSTSVRP | inactive
SLESSLAYVGSLGIAGGSAQ | 1.11 ± 0.23
NFAGLLY | inactive
YIMTYDYVCKNVGWYFTRC | inactive
RFHRYTILLLLTPEWTEHAI | 0.52 ± 0.57
NLVCNSLFRDDKVSTELTEM | inactive
VLVIVVTLRKWMTLNRRGVP | 0.155 ± 0.53

Substance | amyloid nucleation score
KFSLDF | -0.837 ± 0.53
YMDNCSYRYSVTESTRNTAG | 0.17 ± 0.74
FFFVLFGFWYKTRWSMCISK | 2.31 ± 0.22
IYTNSISACDDVVGKNRVFA | -1.3 ± 1.1
YPGWPMKTVQ | 3.97 ± 0.05
FWCCANRSLVISLI | -0.907 ± 0.4
RVRGWLSMSWGCGMGLPASS | 7.03 ± 0.074
NHTLVLLIRNSNVHVSTAQS | 10.78 ± 0.07
STKSSVAVGSDSWNRSHRQV | 0.773 ± 0.22
LVYDKENIGRLDRRRVWRRQ | 0.767 ± 0.74
SVTVTSLWHGTEL | -0.22 ± 1.1
VVKDLRT | 1.91 ± 0.48
VPHHPRVGSLPIHNSAAPYM | -0.683 ± 0.45
RTYVGRPENCKSWSYPMLMQ | 4.805 ± 0.039
LCLEAWERRCI | -0.588 ± 0.17
FKQLIMGYS | 3.24 ± 0.075
IPAMETSTLAGYGPYSHNFG | -0.629 ± 0.26
ISYTVDQRRFTSLVRCLYDH | 0.322 ± 0.57
VVSFSVRSIPCSRVSFMAFS | -0.304 ± 0.54
SKFWVARRCFASHLK | -0.272 ± 1.1
GSRVWFEIINL | 6.013 ± 0.026
QVPGYIAQSKML | 0.407 ± 0.43
FLFETMVIFSSSEMVWRDWC | 0.192 ± 1
SVLEANMHAVWTGRYEN | 0.713 ± 0.22
AGVCCSVSNILWKCTSSSNG | 9.932 ± 0.023

Substance | amyloid nucleation score
SFGTFSCLYSVYNI | 2.84 ± 0.086
IIWPPMSWELISLNCQCVRK | -0.413 ± 0.63
WVTTNMCYTHQFMFGANLVV | 0.276 ± 1
SSRVVVLNYATRRGGQVSGR | 0.496 ± 0.38
CCNIGHNVMNY | 2.9 ± 0.11
TCVRWYGNIW | -0.424 ± 0.27
VIPYISYLDIGTLVLLAFID | -0.373 ± 1
KWFGSRFYYLYKPPLFSHLA | inactive
SCFLSMYVISV | inactive
HGCLYFRFLNALSSFGGYRA | -1.7 ± 1
LFSCFKTEWFCITRMDGLIM | 5.731 ± 0.036
MVGVVWSMTRFCGQHHTILG | 0.531 ± 0.81
LWMDWS | 0.754 ± 0.36
NRLMVPSTNKFTCLPE | 0.056 ± 0.36
GLDPRCNNTPVTLYVLSPWV | -0.588 ± 1.1
SYPVDEMMRFCLFVMDTGQL | 0.106 ± 0.54
SPSDAL | -0.578 ± 0.36
AKVACKDGLHACESESGFIW | 1.54 ± 0.3
YRGQLARCDILHSWQTVCSM | -0.337 ± 0.49
SNSDIWHNARHPIDLATYC | 0.293 ± 0.61
SYIHRAWAYM | inactive
YMYILAVLSVSSLIVNYDLK | inactive
GRMLKFLCWRWVVLMSGAPG | inactive
YNTQVCEVVMWGQHPTTLSS | -0.418 ± 0.41
MVVEFCYVRYRAN | 0.716 ± 0.6

Substance | amyloid nucleation score
QVFRFSYKCPCHAVG | 1.75 ± 0.15
LLWCEWKHG | 4.58 ± 0.076
DLWRLMEIFMRSMRWHGITT | -0.456 ± 0.32
RVSHREFYLRGTLVETLLDD | inactive
IALKFFH | 0.882 ± 0.3
KKAIFWWFWDHDSCL | inactive
LSQVSRFLSSTNLT | 0.579 ± 0.47
GPWGGWSVT | inactive
YRRSPFETSGLQSCYCGSIG | -0.003 ± 1.1
FVKYRSLGKWVLRVTGVMVD | inactive
SFRTAHSAPEVGMLEVYMNL | 0.334 ± 0.5
LVKGRAAERCNFLSWVKSVQ | -0.533 ± 0.3
HLPVSLFYRDS | 0.165 ± 0.41
KYVVVYDSVYGFSVSGFSLW | 0.777 ± 0.19
AADKAICPVGGNTGHRSLGS | 0.691 ± 0.35
IFNKYLVIFSIFI | 6.747 ± 0.037
EFYPTHDFVQRDRRVTRLRI | 0.524 ± 0.81
VFAWLIVGIWACLFGARIFW | -0.291 ± 0.4
NRSLD | -1.26 ± 0.54
SQIRGESSYYCLPSFSLLFF | 6.215 ± 0.057
LLLLF | -1.58 ± 0.75
